Measurements: patent US20240425571A1, “GLYCOPROTEIN A REPETITIONS PREDOMINANT (GARP)-BINDING ANTIBODIES AND USES THEREOF” (OHIO STATE INNOVATION FOUNDATION, priority 2021, published 2024)
Residue numbers refer to the chain shown, from its start. Where two headings read alike, the source gives them in different places.

T1: antigen (Homo sapiens, UniProt Q14392)
T1 sequence (Q14392 20-662): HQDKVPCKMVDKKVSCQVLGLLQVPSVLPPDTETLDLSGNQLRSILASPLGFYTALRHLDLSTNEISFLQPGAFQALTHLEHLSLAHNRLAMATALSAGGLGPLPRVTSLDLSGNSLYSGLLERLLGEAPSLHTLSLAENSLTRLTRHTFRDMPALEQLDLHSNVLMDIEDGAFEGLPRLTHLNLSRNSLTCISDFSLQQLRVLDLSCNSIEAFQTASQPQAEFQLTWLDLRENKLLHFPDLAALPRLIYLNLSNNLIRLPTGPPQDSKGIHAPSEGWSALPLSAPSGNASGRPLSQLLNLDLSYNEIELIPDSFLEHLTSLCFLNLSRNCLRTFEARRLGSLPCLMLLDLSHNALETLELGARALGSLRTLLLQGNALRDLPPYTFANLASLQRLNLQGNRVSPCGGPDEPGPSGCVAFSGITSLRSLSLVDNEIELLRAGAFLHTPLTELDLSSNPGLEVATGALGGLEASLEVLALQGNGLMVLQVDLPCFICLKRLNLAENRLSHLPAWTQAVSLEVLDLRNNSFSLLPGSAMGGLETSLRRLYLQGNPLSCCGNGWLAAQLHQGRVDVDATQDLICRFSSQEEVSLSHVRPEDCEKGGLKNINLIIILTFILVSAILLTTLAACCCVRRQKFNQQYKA

B1: H1L2: humanized PIIO-1 antibody, VH SEQ ID NO: 20 and VL SEQ ID NO: 24 (antibody, V domains shown)
VH: QVQLQESGPGLVKPSQTLSLTCTVSGYSITSDYAWNWIRQFPGNKLEWMGYISYSGSTSYTPSLKSRVTISRDTSKNHFSLKLSSVTAADTAVYYCAKSGGDYYGSSSYWYFDVWGQGTMVTVSS
VL: DIVLTQSPSSLAVSLGERVTMNCKSSQSLLNSRSQKNYLAWYQQKPGQPPKLLIYGASTRGSGVPDRFSGSGSGTDFTLTISSVQAEDVAVYYCQNDHSYPFTFGQGTKLEIKR
B2: H1L1: humanized PIIO-1 antibody, VH SEQ ID NO: 20 and VL SEQ ID NO: 23 (antibody, V domains shown)
VH: B1 VH
VL: B1 VL with V19A, V84L
B3: H2L1: humanized PIIO-1 antibody, VH SEQ ID NO: 21 and VL SEQ ID NO: 23 (antibody, V domains shown)
VH: B1 VH with V68I, S80F
VL: B1 VL with V19A, V84L

Experiments:
[1] = system: Ag(−) cell; test: FACS analysis with Ag(−) cell (non-specific binding); conditions: 5 ug/ml
Protocol: Methods—FACS analysis. Cell preparation: Cell were harvested and washed with PBS+2% FBS for one time. Cell density was adjusted to 1.5E6/mL in PBS/2% FBS. Cell were added to 96 U-bottom well plates at 100 μL/well. Antibody samples preparation: Antibody in supernatant was adjusted to 10 μg/mL using PBS+2% FBS, with serial 5 times dilution performed to obtain 3 concentrations of antibody solution. The blank was PBS+2% FBS. Antibody solutions were placed into 96 U-bottom well plates at 100 μL/well in the same arranging pattern as the cell preparation. Incubation: The antibody samples (100 μl) were mixed with the cells (100 μl), and incubated at RT for 1 h, then centrifuged the plate for 3 min at 1000 rpm (swing bucket). The supernatant was pipetted and the cells were washed with PBS+2% FBS for one time. Incubation with the secondary antibody: Cy3-Conjugated AffiniPure Goat Anti-Human IgG was diluted 250× by PBS+2% FBS, and added to the 96 U-bottom well plate with 100 μl/well, then incubated at RT for 30 min. After that, the plate was centrifuged at 1000 rpm for 3 min and the supernatant was pipetted out. The cell was washed with PBS+2% FBS twice. Cells were re-suspended in 200 μl PBS+2% FBS and analyzed on FACS. The MFI of total live cells were used as binding signal.
Methods—heat treatment. Culture supernatant was serial diluted to the indicated concentration of IgG with cell media and heated at 70° C. for 5 mins on a PCR machine, then quickly cooled down to room temperature.

[2] = target: T1, antigen; test: Label-free kinetic binding assay on Gator; conditions: for Rmax / koff / kon: IgG 2 μg/ml on anti-human Fc probes, antigen 5 μg/ml
Protocol: Affinity measurement. Label-free kinetic binding assay was performed on Gator (similar to Octet).
Methods. Affinity was measured on Gator (ProbeLife, Palo Alto). In brief, the purified IgG sample was diluted in K buffer at 2 μg/ml, and the antigen was diluted at 5 μg/ml. The antibody-loaded anti-human Fc probes were dipped in antigen wells for 5 mins and then moved to K buffer wells for 5 mins. In the whole process, the sample plate was shaken at 1,000 rpm. The data analysis was carried out using Gator software (ProbeLife).

[3] = Thermostability by DSF/SLS (UNcle); type: physicochemical; conditions: for SLS Tagg 266: SLS at 266 nm; for SLS Tagg 473: SLS at 473 nm
Protocol: Developability Analysis for PIIO-1 humanization leads. Antibodies were analyzed for thermostability by DSF/SLS. Samples were submitted to the UNcle system (Unchained Labs) for analysis. A temperature ramp of 1° C./min was performed with monitoring from 20° C. to 95° C. for DSF and SLS. UNcle measures SLS at 266 nm and 473 nm. Tm and Tagg were calculated and analyzed by using the UNcle Analysis Software. DSF: Differential scanning fluorimetry; SLS: Static light scattering; Tm: Melting temperature; Tagg 266: Thermal aggregation when SLS at 266 nm; Tagg 473: Thermal aggregation when SLS at 473 nm. A summary is shown below in Table F:
IgG is a multi-domain structure and each domain has its own melting Temperature (Tm). […] Fabs have Tm in a wide range, generally about 50-85° C., due to large sequence variation. Therefore, the Tm values measured by various analytical techniques are usually “apparent” transition temperatures rather than the real Tm for each domain. In the case of whole IgG, there are often 2-3 Tm values in DSF measurement, presenting some challenge in determining which Tm represents which domain.
Tagg is the temperature at which SLS starts to detect aggregation particles. Tagg266 measures SLS at 266 nm, which is more sensitive and suitable to detect smaller aggregation particles. Tagg473 measures SLS at 473 nm and is better to detect larger particles.

[4] = Aggregation potential by DLS analysis; type: physicochemical; conditions: for Peak 1 Mass / Peak 1 Mode Diameter / Peak 1 PDI / Peak 2 Mass: DLS at 25° C.
Protocol: Aggregation potential by DLS analysis. DLS was performed on UNcle system (Unchained Labs). DLS was measured at 25° C. Data was calculated and analyzed using UNcle Analysis Software. DLS: Dynamic light scattering PDI: Polydispersity index, PDI=(standard deviation/mean hydrodynamic radius).
Dynamic Light Scattering (DLS) is used to detect aggregation in the antibody sample. “Mode diameter” is protein particle diameter and “mass percentage” is the amount of each size fraction in percentage. “PDI” is Polydispersity Index; the higher this index, the more polydispersity in the sample is. […] Peak 1 is the major peak and represents the IgG monomer. The inventor takes “Peak 1 mass percentage” and “PDI” value into consideration in selecting a lead.

[5] = Reducing CE-SDS (heterogeneity); type: physicochemical; conditions: for OTHER (%) / PK#1 (%) / PK#2 (%) / PK#3 (%): Reducing-CE-SDS
Protocol: (§1) Analysis of the heterogeneity by Capillary Electrophoresis (CE). The sample was prepared in reducing and non-reducing labeling buffer before being submitted to the CE analysis. A summary of the Reducing-CE-SDS and Non-Reducing-CE-SDS results are shown in FIG. 13A/Table H and FIG. 13B/Table I, respectively: […]

[6] = Non-reducing CE-SDS (heterogeneity); type: physicochemical
Protocol: as §1

[7] = system: Baculovirus; test: Baculovirus (BV) ELISA for non-specific binding
Protocol: Baculovirus (BV) ELISA was employed as a preliminary assay to evaluate antibody's potential nonspecific binding risk.
In Baculovirus (BV) ELISA, the inventor used Rituxan Mab as reference. […] If a clone only has binding on BV, but not on 293 cells, it will be considered as having a low risk of non-specific binding.
Methods—Baculovirus ELISA. Plates are coated with 50 μl of 1:500 diluted Baculovirus sample in PBS in each well. Plates are kept at 4° C. for overnight. The plates are washed with 300 μL of wash buffer ×3 and 200 μl blocking buffer (1% BSA) is added at RT for 60 min. Plates are washed with 300 μl of wash buffer ×3 and 100 μl of diluted Abs are added at different concentrations/well, followed by RT incubation for 1 hr. Plates are washed with 300 μl of wash buffer ×6 and 100 μl of 1:5000 HRP conjugated second Ab in PBS is added followed by RT incubation for 1 hr. The plates are washed with 300 μl of wash buffer ×6. Developing buffer is added and the plate is read.

[8] = ramp 1° C./min, 20° C. to 95° C.

Molecule	FACS with Ag(−) cell (MFI) ([1]; Heating)	FACS with Ag(−) cell (MFI) ([1]; Non-Heating)	KD value compared with the chimeric [2]	Rmax [2]	koff [2]	kon [2]	SLS Tagg 266 [3] [°C]	SLS Tagg 473 [3] [°C]	DSF TM2 [3, 8] [°C]	DSF Tm1 [3, 8] [°C]	Peak 1 Mass [4] [%]	Peak 1 Mode Diameter [4] [nm]	Peak 1 PDI [4]	Peak 2 Mass [4] [%]	OTHER (%) [5] [%]	PK#1 (%) [5] [%]	PK#2 (%) [5] [%]	PK#3 (%) [5] [%]	Main Peak (%) [6] [%]	OTHER (%) [6] [%]	further results
B1	3.35	3.24	same KD value to the chimeric	0.885	0.000813	9.98E+04	78.8	79.3	76.7	70.0	99.94	9.68	0.361	0	0.9	1.4	29.1	68.7	97.6	2.4	thermostability compared with parental 4D3 chimeric antibody (Table F) [3]: superior thermostability over the parental 4D3 chimeric antibody; aggregation risk ([3]; from Tagg266 and Tagg473 in SLS assay): very low aggregation risk; DSF Tm3 [3, 8]: 87.5 °C; comparison of humanized antibodies by Table G [4]: superior to huPIIO-1VH1VL1; PDI compared with WT ([4]; listed as VH1VL2): slightly higher PDI than that of the chimeric clone; homogeneity (Table H) [5]: superior homogeneity versus clone huPIIO-1VH2VL1; BV ELISA with purified IgG, raw BV binding data ([7]; Ab. Conc. 0.15625 ug/ml): 15.6; BV ELISA with purified IgG, raw BV binding data ([7]; Ab. Conc. 0.3125 ug/ml): 15.4; BV ELISA with purified IgG, raw BV binding data ([7]; Ab. Conc. 0.625 ug/ml): 23.5; BV ELISA with purified IgG, raw BV binding data ([7]; Ab. Conc. 1.25 ug/ml): 26.6; BV ELISA with purified IgG, raw BV binding data ([7]; Ab. Conc. 2.5 ug/ml): 39.6; BV ELISA with purified IgG, raw BV binding data ([7]; Ab. Conc. 5 ug/ml): 38.1; BV ELISA with purified IgG, raw BV binding data ([7]; Ab. Conc. 10 ug/ml): 102.3; BV ELISA with purified IgG, raw BV binding data ([7]; Ab. Conc. 20 ug/ml): 253.4; BV-binding in words ([7]; purified antibodies, Rituxan as reference): a bit higher signal
B2	3.36	3.31	same KD value to the chimeric	0.791	0.00081	1.01E+05	74.2	74.9	83.7	70.2	99.95	9.68	1.228	0	0.9	5.6	23.2	70.4	97.6	2.4	PDI compared with WT [4]: slight worse than WT; BV ELISA with purified IgG, raw BV binding data ([7]; Ab. Conc. 0.15625 ug/ml): 15.0; BV ELISA with purified IgG, raw BV binding data ([7]; Ab. Conc. 0.3125 ug/ml): 16.2; BV ELISA with purified IgG, raw BV binding data ([7]; Ab. Conc. 0.625 ug/ml): 14.7; BV ELISA with purified IgG, raw BV binding data ([7]; Ab. Conc. 1.25 ug/ml): 16.0; BV ELISA with purified IgG, raw BV binding data ([7]; Ab. Conc. 2.5 ug/ml): 18.3; BV ELISA with purified IgG, raw BV binding data ([7]; Ab. Conc. 5 ug/ml): 24.9; BV ELISA with purified IgG, raw BV binding data ([7]; Ab. Conc. 10 ug/ml): 52.7; BV ELISA with purified IgG, raw BV binding data ([7]; Ab. Conc. 20 ug/ml): 157.2
B3	3.29	3.23	same KD value to the chimeric	0.756	0.000806	1.00E+05	73.7	74.7	83.2	69.9	100	9.68	0.141	0	2.7	21.7	6.9	68.7	89.1	10.8	comparison of humanized antibodies by Table G [4]: superior to huPIIO-1VH1VL1; BV ELISA with purified IgG, raw BV binding data ([7]; Ab. Conc. 0.15625 ug/ml): 14.5; BV ELISA with purified IgG, raw BV binding data ([7]; Ab. Conc. 0.3125 ug/ml): 14.6; BV ELISA with purified IgG, raw BV binding data ([7]; Ab. Conc. 0.625 ug/ml): 15.6; BV ELISA with purified IgG, raw BV binding data ([7]; Ab. Conc. 1.25 ug/ml): 18.3; BV ELISA with purified IgG, raw BV binding data ([7]; Ab. Conc. 2.5 ug/ml): 17.8; BV ELISA with purified IgG, raw BV binding data ([7]; Ab. Conc. 5 ug/ml): 30.8; BV ELISA with purified IgG, raw BV binding data ([7]; Ab. Conc. 10 ug/ml): 82.7; BV ELISA with purified IgG, raw BV binding data ([7]; Ab. Conc. 20 ug/ml): 161.0
